First the molecules themselves.
B1: REF6-HSE-P1 (dsDNA)
DNA 1: AGCCAGTGGCGATAAGCTACTAATTTCATGAACTACCAAAGACTCTTATCGCCACTGGCT
DNA 2: AGCCAGTGGCGATAAGAGTCTTTGGTAGTTCATGAAATTAGTAGCTTATCGCCACTGGCT
B2: SGIP1-HSE-P4 (dsDNA)
DNA 1: AGCCAGTGGCGATAAGCTCTGAAAAGTTTCTGTCGAAGTCTTATCGCCACTGGCT
DNA 2: AGCCAGTGGCGATAAGACTTCGACAGAAACTTTTCAGAGCTTATCGCCACTGGCT
B3: BRM-HSE-P2 (dsDNA)
DNA 1: AGCCAGTGGCGATAAGTTTTACTTGTTTCGGGAAAAAAAACTACTTATCGCCACTGGCT
DNA 2: AGCCAGTGGCGATAAGTAGTTTTTTTTCCCGAAACAAGTAAAACTTATCGCCACTGGCT
B4: BRM-HSE-P3 (dsDNA)
DNA 1: AGCCAGTGGCGATAAGATTTTTATTTTTCGAGAAGCCATCTCACTTATCGCCACTGGCT
DNA 2: AGCCAGTGGCGATAAGTGAGATGGCTTCTCGAAAAATAAAAATCTTATCGCCACTGGCT
B5: BRM-HSE-P1 (dsDNA)
DNA 1: AGCCAGTGGCGATAAGAACAAATTTATTCAGGAATCAGAAACACTTATCGCCACTGGCT
DNA 2: AGCCAGTGGCGATAAGTGTTTCTGATTCCTGAATAAATTTGTTCTTATCGCCACTGGCT

Sequence of His-HSFA2 (O80982 whole entry): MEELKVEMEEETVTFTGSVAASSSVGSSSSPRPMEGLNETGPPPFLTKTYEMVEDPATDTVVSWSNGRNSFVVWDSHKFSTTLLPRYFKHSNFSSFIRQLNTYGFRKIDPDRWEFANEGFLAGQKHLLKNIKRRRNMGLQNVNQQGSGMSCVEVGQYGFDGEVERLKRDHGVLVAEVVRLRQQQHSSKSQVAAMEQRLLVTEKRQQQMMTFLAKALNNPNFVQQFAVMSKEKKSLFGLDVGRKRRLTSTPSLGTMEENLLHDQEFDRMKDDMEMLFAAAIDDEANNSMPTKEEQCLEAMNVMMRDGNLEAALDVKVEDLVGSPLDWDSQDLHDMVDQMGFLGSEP

This data set has as its target His-HSFA2 (Arabidopsis thaliana, UniProt O80982 1-345). The experiment in a line: EMSA; HSFA2: 10 mM Tris-HCl pH 7.6, 25 mM KCl, 2.5 mM MgCl2, 1 mM EDTA, 1 mM DTT, 10% glycerol, 25 C 30 min; REF6C: 25 mM Tris-HCl pH 8.0, 100 mM NaCl, 2.5 mM MgCl2. To be noted: protein: recombinant; tags: His (pET32a in Methods); chain copies: 3; label: Cy5 end.
For B1, the binding result was “binds”. In the case of B2 it was “binds”. The value for B3 was “binds”; that for B4 was “binds”. The value for B5 was “binds”.

For the origin of these results see paper PMC6796840, “An H3K27me3 demethylase-HSFA2 regulatory loop orchestrates transgenerational thermomemory in Arabidopsis”.
